Results from patent US6943279B1, “Amino polyol amine oxidase polynucleotides and related polypeptides and methods of use” (priority 1999, dated 2005).

Experiments:
[1] = Other enzymes tested for ability to modify AP1, radiolabeled TLC; format: biochemical; settings: optimal conditions at 37° Celsius, overnight or longer
Method: For analysis of APAO activity, an alternative method was used. Equal volumes of sample and ^14C-AP1 (1 mg/ml, pH 8, 50 mM sodium phosphate) were incubated at room temperature for one to six days. Analytical thin-layer chromatography was then carried out on C60 HPK silica gel plates (Whatman #4807-700; 10×10 cm; 0.2 mm thick). After application of from 0.1 to 2 μl of aqueous sample, the plates were air-dried and developed in CHCl3:MeOH:CH3COOH:H20 (55:36:8:1). Plates were then air dried, and exposed to Phosphorlmager screen (Molecular Dynamics) or autoradiographic film. A Storm™ Phosphorlmager (Molecular Dynamics) was used to scan the image produced on the screen.
Other enzymes were tested for their ability to modify AP1. All enzymes were assayed by radiolabeled TLC, as described above, under optimal conditions at 37° Celsius, overnight or longer.

[2] = Pichia expression of trAPAO, TLC assay; format: biochemical, Pichia pastoris; settings: pellet suspensions and lysates; 6 days room temperature
Method: The Pichia culture fluids and pellets were assayed for APAO activity as described earlier.
The 50 μl cell pellets were resuspended in 150 μl cold 5OmM Na-phosphate, pH 8.0. and divided into two fresh 500 μl tubes. One tube was kept on ice with no treatment, the pellet suspension, and one tube was used for lysis. An equal volume of 0.1 mm zirconia-silica beads was added to each tube. The tubes were BeadBeatT™ for 15 seconds then cooled on ice 5 minutes. This was repeated three times. The crude lysate was then transferred to another tube for assay or lysate suspension.
The TLC assays were performed as follows, the samples are 1) pellet suspensions; 10 μl; 2) lysate suspensions; 10 μl; 3) media controls-mixed 5 μl media with 5 μl crude fungal enzyme; 10 μl; 4) positive control-used crude fungal enzyme undiluted; 10 μl; 5) substrate control-used 50 mM Na-phosphate, pH8.0; 10 μl. […]
A positive TLC result is obtained if an additional radioactive spot appears at a lower Rf of the produced AP1 modification earlier identified as 2-OP, a deaminated product of AP1. In samples #6 and #52 (without intron) the AP1-modifying enzyme activity (conversion of AP1 to 2-OP) was detected in pellet suspensions and pellet lysates, although the majority of activity was associated with the pellet suspensions. […]

[3] = Site-directed mutagenesis vectors: maize transient expression, APAO or trAPAO activity; format: biochemical; settings: transient expression in maize
From the text: Please see the table above entitled “Table of site-directed mutagenesis vectors and enzyme assay results.” Thus, elimination of this glycosylation site is not in itself sufficient to have an active protein upon secretion. This could be due to glycosylation occurring at a second adjacent site (N201-S203). However, no active APAO was recovered when either N201 or S203 is mutated along with S206. […] This is backed up by predicted solvent accessibility numbers for these residues in the 3-D model based on the maize amine oxidase. Please see the table below entitled “Solvent accessibility for cysteine residues of truncated APAO.” The elimination of APAO glycosylation site at amino acids 204 to 206 is not sufficient to allow APAO to be secreted from the ccil and retain full enzyme activity, but elimination of this site may improve chances for obtaining a fully active enzyme once the other roadblock(s) to secretability have been resolved. In other words, elimination of this site may be necessary but not sufficient to produce active secretable APAO.

[4] = Mutated APAO lysates from E coli, Amplex Red assay, substrate FB1; format: biochemical; settings: Glyc(−) APAO lysates from E coli
[5] = Mutated APAO lysates from E coli, Amplex Red assay, substrate AP1; format: biochemical; settings: Glyc(−) APAO lysates from E coli

In the case of “D-amino oxidase: EC 1.4.3.3, porcine kidney: Type X”, the “Result (ability to modify AP1)” value [1] is reported as “negative”.

B1: trAPAO: truncated, but still functional APAO (SEQ ID NO: 6) (protein, listed as Exophiala spinifera)
chain: DNVADVVVVGAGLSGLETARKVQAAGLSCLVLEAMDRVGGKTLSVQSGPGRTTINDLGAAWINDSNQSEVSRLFERFHLEGELQRTTGNSIHQAQDGTTTTAPYGDSLLSEEVASALAELLPVWSQLIEEHSLQDLKASPQAKRLDSVSFAHYCEKELNLPAVLGVANQITRALLGVEAHEISMLFLTDYIKSATGLSNIFSDKKDGGQYMRCKTGMQSICHAMSKELVPGSVHLNTPVAEIEQSASGCTVRSASGAVFRSKKVVVSLPTTLYPTLTFSPPLPAEKQALAENSILGYYSKIVFVWDKPWWREQGFSGVLQSSCDPISFARDTSIDVDRQWSITCFMVGDPGRKWSQQSKQVRQKSVWDQLRAAYENAGAQVPEPANVLEIEWSKQQYFQGAPSAVYGLNDLITLGSALRTPFKSVHFVGTETSLVWKGYMEGAIRSGQRGAAEVVASLVPAA
With B1 the “APAO activity (conversion of AP1 to 2-OP) in Pichia transformants” value [2] was “functions correctly in degrading AP1”.

B2: S206A: APAO mutated to alter the serine at position 206 to an alanine (SEQ ID NO: 33) (protein)
chain: MALAPSYINPPNVASPAGYSHVGVGPDGGRYVTIAGQIGQDASGVTDPAYEKQVAQAFANLRACLAAVGATSNDVTKLNYYIVDYAPSKLTAIGDGLKATFALDRLPPCTLVPVSALSSPEYLFEVDATALVPGHTTPDNVADVVVVGAGLSGLETARKVQAAGLSCLVLEAMDRVGGKTLSVQSGPGRTTINDLGAAWINDSNQAEVSRLFERFHLEGELQRTTGNSIHQAQDGTTTTAPYGDSLLSEEVASALAELLPVWSQLIEEHSLQDLKASPQAKRLDSVSFAHYCEKELNLPAVLGVANQITRALLGVEAHEISMLFLTDYIKSATGLSNIFSDKKDGGQYMRCKTGMQSICHAMSKELVPGSVHLNTPVAEIEQSASGCTVRSASGAVFRSKKVVVSLPTTLYPTLTFSPPLPAEKQALAENSILGYYSKIVFVWDKPWWREQGFSGVLQSSCDPISFARDTSIDVDRQWSITCFMVGDPGRKWSQQSKQVRQKSVWDQLRAAYENAGAQVPEPANVLEIEWSKQQYFQGAPSAVYGLNDLITLGSALRTPFKSVHFVGTETSLVWKGYMEGAIRSGQRGAAEVVASLVPAA
modifications: Glyc(-) APAO; mutation in glycosylation sites (Exophiala spinifera)
For B2, the “Maize expression vector, APAO or trAPAO Activity (Act)” value [3] was “no detectable enzyme activity”, the Conclusion [4] was “Slightly active” and the “M H2O2/min” value [4] was 0.07 μM H2O2/min. For the same molecule, the Conclusion [5] was “Partially Active” and the “M H2O2/min” value [5] was 0.85 μM H2O2/min.
